B1: Ankyrin repeat and SAM domain-containing protein 6, residues 774 to 836; numbered along this chain, Q68DC2 (parent)
chain: DEDELTGILKKLSLEKYQPIFEEQEVDMEAFLTLTDGDLKELGIKTDGSRQQILAAISELNAG

Variants of: B1
Experiment: abundance fitness (aPCA) (normalised: wild type 0, dead -1); higher = more abundant; growth selection in yeast, the domain comes from the species named
Conditions: Homo sapiens

Abundance fitness: each site, then its substitutions
E41: A -0.047, I -0.472, S -0.022, F -0.376, W -0.498, P -0.658, D -0.044, C -0.113, Q 0.044, R -0.049, M -0.263, T -0.039, L -0.205, G -0.092, Y -0.321, H -0.045, N -0.052, K -0.109, V -0.232
K40: P -0.67, L -0.036, D -0.084, A -0.121, E -0.041, F -0.326, W -0.263, Y -0.115, V 0.044, Q -0.142, H -0.286, C -0.215, S -0.096, T -0.138, N -0.146, G -0.31
L39: G -0.699, M -0.437, D -0.499, T -0.667, E -0.625, Q -0.605, K -0.912, W -1, H -0.751, A -0.59, P -0.747, S -0.683, F -0.616, Y -0.673, V -0.57, N -0.514, C -0.662, R -0.599
D38: L -1.16, P -0.645, I -1.12, M -0.611, Y -1.11, E -0.072, R -0.074, K -0.188, F -1.28, G -0.273, Q -0.165, A -0.49, W -0.965, H -0.418, V -1.06, S -0.232, T -0.369, N -0.2, C -0.773
I44: A -0.574, H -0.806, M -0.253, E -0.586, R -0.676, V 0.037, L -0.245, G -0.592, F -0.144, N -0.645, P -0.746, S -0.651, Y -0.766, T -0.555, C -0.458, W -0.654, Q -0.643
G37: S -0.058, V -0.028, T -0.064, Y -0.138, W -0.331
K45: Y -0.233, F -0.143, H -0.076, Q -0.151, T -0.02, R -0.027, N -0.079, P -0.044, D 0.079, M 0.008, I -0.348, V -0.225, G -0.114, C -0.191, L -0.066, A -0.055, E 0.013
G43: H -0.556, W -1.16, K -0.326, Y -1.22, D -0.199, T -0.675, P -0.683, M -0.611, R -0.616, Q -0.608, C -0.742, S -0.477, I -1.07, L -0.655
T46: W -0.521, G -0.011, L -0.116, Q -0.201, V -0.138, F -0.361, I -0.019, N -0.159, C 0.016, H 0.151, D 0.118, P -0.048, Y -0.197, E 0.084, M -0.039, K 0.061, S 0.017
G48: F -0.339, M -0.113, L -0.042, A -0.047, K -0.131, D -0.016, E 0.107
D47: Q -0.054, S -0.114, F -0.14, A -0.061, G -0.158, M -0.138, T -0.029, Y -0.114, L -0.089, H 0.042, K -0.126, I -0.058, N -0.126, R -0.149, W -0.309, V -0.049, E 0.056, C -0.128

— the Human Domainome abundance scans (Beltran et al. 2025)
